Laboratory results as given in patent US20250277200.

How the values were obtained:
[1] = system: C3a
[2] = system: T1, C5a
T1 sequence: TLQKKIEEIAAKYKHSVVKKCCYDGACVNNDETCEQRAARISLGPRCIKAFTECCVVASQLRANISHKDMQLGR

C3a, sequence (chain, as listed by the source): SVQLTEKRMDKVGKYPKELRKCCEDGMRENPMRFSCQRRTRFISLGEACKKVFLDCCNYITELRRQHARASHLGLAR
CPN1-HSA, sequence (chain): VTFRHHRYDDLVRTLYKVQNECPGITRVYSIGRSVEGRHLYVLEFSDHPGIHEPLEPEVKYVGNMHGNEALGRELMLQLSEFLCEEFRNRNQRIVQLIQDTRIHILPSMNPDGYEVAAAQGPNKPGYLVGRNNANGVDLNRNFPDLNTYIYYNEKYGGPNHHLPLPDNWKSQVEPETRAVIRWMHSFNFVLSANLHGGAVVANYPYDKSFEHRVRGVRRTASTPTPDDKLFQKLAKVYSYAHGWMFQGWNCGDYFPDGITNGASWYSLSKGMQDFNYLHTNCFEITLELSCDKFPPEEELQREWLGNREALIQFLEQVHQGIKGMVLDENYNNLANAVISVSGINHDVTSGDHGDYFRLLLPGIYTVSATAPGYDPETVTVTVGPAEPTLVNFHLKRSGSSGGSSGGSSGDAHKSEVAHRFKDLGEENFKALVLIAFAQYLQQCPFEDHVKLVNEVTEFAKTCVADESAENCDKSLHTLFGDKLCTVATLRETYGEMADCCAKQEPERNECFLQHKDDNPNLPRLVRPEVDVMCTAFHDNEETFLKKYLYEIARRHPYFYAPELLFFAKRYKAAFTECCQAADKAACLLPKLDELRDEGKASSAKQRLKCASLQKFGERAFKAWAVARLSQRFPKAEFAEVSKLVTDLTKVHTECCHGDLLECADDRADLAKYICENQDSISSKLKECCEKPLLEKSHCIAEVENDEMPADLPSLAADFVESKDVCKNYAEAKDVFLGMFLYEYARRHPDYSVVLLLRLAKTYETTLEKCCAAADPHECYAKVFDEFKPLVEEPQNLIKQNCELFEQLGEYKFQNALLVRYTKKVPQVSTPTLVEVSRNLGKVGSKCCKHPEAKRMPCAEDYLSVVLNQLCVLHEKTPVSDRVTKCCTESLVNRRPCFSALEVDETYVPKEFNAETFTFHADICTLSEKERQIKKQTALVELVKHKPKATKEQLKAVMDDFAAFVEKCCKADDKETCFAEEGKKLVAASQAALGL

## CPN1-HSA
[1]
  % Cleavage (GPCR assay, purified enzyme): 100%
  % Cleavage (GPCR assay, supernatant): 100%
  Kcat/KM (Arg LC-MS/MS, purified enzyme): 800000 M⁻¹ s⁻¹
[2]
  % Cleavage (GPCR assay, purified enzyme): 82%
  % Cleavage (GPCR assay, supernatant): 97%
